Measured values reported in IntAct's records for PubMed 19696784.

B1: Microtubule protein alp7 (Schizosaccharomyces pombe (strain ATCC 38366 / 972)), Q9URY2 (parent)
chain: MSDIVSSSTDYSRRSPSSSSIGTNETDHTGFHEKRQGASSESLIPPAQRSSEESMPAPKLFPKLTSKPNPQLNLKDTLNKRVSDRLQALELNKSFDFSGTPRPMHPISHPLSQHKTPEFKHRKRNVESILTPKNPSLFSSSNAASQRGSLNTAPSNFAYSHSSSLQTSASSRPPVLSNGSFPRQTNTAPLNPPVHLKDNIRNSATPSTSQADIPTQYPINSTQKQQAKYEAEIEGYKAKLAGTYHEISVLQNTIVNVSGQLIAVNDQLQQLRSGKASTSPSTKDTNMRLVEGHNEETLALQRGKYTQEEVDKLIQERMEKVAEDLHAQYSAKHTQKINAFKANYARKYEATIQELQNQIGTAPNAPKISNSNWEEERRALKADNQTLQKQLEKAIQERQDMSDFLNNFKADMAKSDKLLMQQQSQQTGDLETLRLQLQALQEELRVEREERQQLIQMSEDLVIAMDQLNLEQKS
partner: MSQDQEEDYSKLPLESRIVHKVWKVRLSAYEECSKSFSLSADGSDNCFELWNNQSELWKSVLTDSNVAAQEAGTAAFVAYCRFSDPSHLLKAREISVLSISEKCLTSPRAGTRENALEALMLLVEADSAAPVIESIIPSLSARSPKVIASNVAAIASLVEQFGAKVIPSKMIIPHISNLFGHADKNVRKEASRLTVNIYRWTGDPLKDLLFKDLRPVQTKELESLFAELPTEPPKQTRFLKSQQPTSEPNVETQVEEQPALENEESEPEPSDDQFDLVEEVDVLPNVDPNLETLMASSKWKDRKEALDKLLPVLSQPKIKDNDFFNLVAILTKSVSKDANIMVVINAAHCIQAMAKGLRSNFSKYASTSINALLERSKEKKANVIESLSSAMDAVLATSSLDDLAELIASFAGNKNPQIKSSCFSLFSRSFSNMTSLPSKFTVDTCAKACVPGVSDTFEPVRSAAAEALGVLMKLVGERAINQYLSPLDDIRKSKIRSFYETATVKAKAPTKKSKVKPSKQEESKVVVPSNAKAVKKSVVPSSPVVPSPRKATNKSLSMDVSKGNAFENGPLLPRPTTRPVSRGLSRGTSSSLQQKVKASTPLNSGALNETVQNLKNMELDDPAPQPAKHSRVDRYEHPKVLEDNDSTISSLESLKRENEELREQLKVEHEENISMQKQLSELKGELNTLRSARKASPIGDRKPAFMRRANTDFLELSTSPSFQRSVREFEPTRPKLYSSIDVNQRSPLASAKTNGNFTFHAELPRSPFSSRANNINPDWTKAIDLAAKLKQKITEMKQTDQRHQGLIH

Variants of: B1
Conditions: with alp14_schpo alp14, O94534

| effect of a mutation on the interaction | Variant |
| --- | --- |
| disrupting interaction | L461A |
